Test results reported in FireProtDB (doi:10.1110/ps.38602).

B1: Ribonuclease HI wild type, P0A7Y4 (protein)
chain: MLKQVEIFTDGSCLGNPGPGGYGAILRYRGREKTFSAGYTRTTNNRMELMAAIVALEALKEHCEVILSTDSQYVRQGITQWIHNWKKRGWKTADKKPVKNVDLWQRLDAALGQHQIKWEWVKGHAGHPENERCDELARAAAMNPTLEDTGYQVEV
B2: Ribonuclease H wild type, P29253 (protein)
chain: MNPSPRKRVALFTDGACLGNPGPGGWAALLRFHAHEKLLSGGEACTTNNRMELKAAIEGLKALKEPCEVDLYTDSHYLKKAFTEGWLEGWRKRGWRTAEGKPVKNRDLWEALLLAMAPHRVRFHFVKGHTGHPENERVDREARRQAQSQAKTPCPPRAPTLFHEEA

Conditions: Escherichia coli (strain K12); pH 5.5; 25 °C; GdnHCl; CD; NaOAc 20 mM; KCl 50 mM; reversible: yes; whole UniProt chain shown

Protein	denaturant m value	unfolding free energy
B1	4.9 kcal/mol/M	7.6 kcal/mol

Same assay, conditions: Escherichia coli (strain K12); pH 5.5; 25 °C; Urea; CD; NaOAc 20 mM; KCl 50 mM; reversible: yes; whole UniProt chain shown

Protein	denaturant m value	unfolding free energy
B1	2.1 kcal/mol/M	9.7 kcal/mol

Same assay, conditions: Escherichia coli (strain K12); pH 5.5; Thermal; CD; NaOAc 20 mM; KCl 50 mM; reversible: yes; whole UniProt chain shown

Protein	Tm	heat capacity change of unfolding
B1	66 °C	2.7 kcal/mol/K

Same assay, conditions: Thermus thermophilus (strain ATCC 27634 / DSM 579 / HB8); pH 5.5; 25 °C; GdnHCl; CD; NaOAc 20 mM; KCl 50 mM; reversible: yes; whole UniProt chain shown

Protein	denaturant m value	unfolding free energy
B2	4.4 kcal/mol/M	12.2 kcal/mol

Same assay, conditions: Thermus thermophilus (strain ATCC 27634 / DSM 579 / HB8); pH 5.5; Thermal; CD; NaOAc 20 mM; KCl 50 mM; reversible: yes; whole UniProt chain shown

Protein	Tm	heat capacity change of unfolding
B2	86 °C	1.8 kcal/mol/K
